In patent US8936925B2, “Reconstitution of 5-enolpyruvylshikimate-3-phosphate synthase activity by fragment complementation” (priority 2004, dated 2015):
Changes are numbered by the printed parent chain. Names and notes keep the numbering of the source. Like-named read-outs stand apart in the source and are kept apart here.

B1: EPSPS-G96A (protein, UniProt P0A6D3 1-427, looked up, variant G96A)
3-phosphoshikimate …: MESLTLQPIARVDGTINLPGSKSVSNRALLLAALAHGKTVLTNLLDSDDVRHMLNALTALGVSYTLSADRTRCEIIGNGGPLHAEGALELFLGNAATAMRPLAAALCLGSNDIVLTGEPRMKERPIGHLVDALRLGGAKITYLEQENYPPLRLQGGFTGGNVDVDGSVSSQFLTALLMTAPLAPEDTVIRIKGDLVSKPYIDITLNLMKTFGVEIENQHYQQFVVKGGQSYQSPGTYLVEGDASSASYFLAAAAIKGGTVKVTGIGRNSMQGDIRFADVLEKMGATICWGDDYISCTRGELNAIDMDMNHIPDAAMTIATAALFAKGTTTLRNIYNWRVKETDRLFAMATELRKVGAEVEEGHDYIRITPPEKLNFAEIATYNDHRMAMCFSLVALSDTPVTILDPKCTAKTFPDYFEQLARISQAA
B2: EPSPS: E. coli wild type full length 5-enolpyruvylshikimate-3-phosphate synthase (protein, UniProt P0A6D3 1-427, looked up)
chain: B1 3-phosphoshikimate … with A96G
modifications: full-length
notes: E. coli wild type full length 5-enolpyruvylshikimate-3-phosphate synthase

Key:
[1] = system: aroA-mutant E. coli strain AB2829; assay: Growth in M63 restrictive media with different concentrations of glyphosate; type: cell-based
Experimental: aroA gene-mutant E. coli strains AB 2829 carrying plasmid pKU2004, pKU2006 or pKU2007 were inoculated in liquid LB medium and incubated overnight. A sample of the culture was centrifuged at 4000 rpm for 3 min and re-suspended in 0.9% physiological saline. After a further centrifugation, the supernatant was discarded. The pellets were re-suspended in physiological saline and inoculated at an initial concentration of OD600 0.04 into a liquid media comprising 0, 50 or 100 mM glyphosate for overnight culture at 37° C. Absorption (OD600) was measured at intervals.
In order to test whether the mutated EPSPS fragments perform functional complementation in vivo, plasmid pKU2105 and pKU2333 were constructed, which encode the N-terminal fragments N218-G96A and N227-G96A of E. coli EPSPS, respectively. They were introduced into aroA-mutant E. coli strain AB2829 (aroA−, from Yale University) together with their corresponding plasmids encoding C219 and C228 respectively. The growth was detected in the M63 restrictive media with different concentrations of glyphosate.

[2] = system: EPSPS
Experimental: (1) 95 μl substrate (50 mmol/L HEPES buffer (pH 7.5), 1 mmol/L PEP, 1 mmol/L S3P) was pre-warmed at 28 °C in an incubator for 5 min.
(2) 5 μl enzyme was added and the reaction was kept in an incubator at 28 °C for 1-20 min (depends on the enzyme activity). After that, 800 μl MG/AM/NP was added and the reaction was mixed for 1 min.
(3) 100 μl 34% sodium citrate was added and the reaction was mixed for half an hour. The OD660 was measured on a spectrometer.
The enzyme activities and the Km values to substrates of these three proteins were measured.

Molecule | growth in M63 medium containing 50 mM glyphosate [1] | growth in M63 medium containing 100 mM glyphosate ([1]; 100 mM glyphosate) | specific activity ([2]; PEP and S3P both 1.0 mM) [mol/min/mg] | Km ([2]; read-out: Km [PEP], S3P 1 mM, PEP varied from 50 to 200 μM) [µM] | Km ([2]; read-out: Km [S3P], PEP 1 mM, S3P varied from 50 to 200 μM) [µM]
B1 | grew well | still grew well |  |  | 
B2 | inhibited from growth |  | 44 ± 2 | 14 ± 3 | 45 ± 1
